The values below come from paper PMC8752127 (Structure(London, England:1993), 2022).

The target in the test is CEP164^1−109 (N-terminal domain of human CEP164), untagged (human, UniProt Q9UPV0). Description: crystal structure; nanobody and CEP164 1-109 (or the TTBK2 1074-1087-CEP164 1-109 fusion protein) mixed equimolar; vapour diffusion at 19°C. The following applies: both partners purified.

B1: camelid nanobody 36Z (VHH)
VHH: QVQLQESGGGLVQAGGSLNLSCVASGSSHFNSMGWYRQAPGKQRDLVADISNDGVTNYADSVKDRFTISTNNAKNAVYLQMNNLKPEDTAVYYCNAVAVAGRAFSYWGQGTQVTVSS
As to B1, the binding result was “binds”.
